Assay results as given in the supplement of paper PMC9732359.
± gives the uncertainty stated by the source.

Assay: protein stability index of a GFP-peptide fusion (yeast GPS) (PSI 1-4); higher = more stable; sorted into four equal gates, so the index is relative within each strain
How it was run: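 The protein stability index of a peptide was calculated by multiplying its read frequency in each gate by that gate's number and adding the products. The peptides were tiled 17-residue stretches of yeast proteins, fused downstream of GFP on a Cherry-expressing plasmid and carried in yeast as a pooled library. Mid-log cultures in leucine-free medium were sorted into four equal gates by GFP/Cherry ratio, and each gate's plasmids were PCR-amplified and Illumina-sequenced.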

| Sequence | protein stability index (doa10∆) | protein stability index (pdr5∆) | protein stability index (san1∆) | protein stability index (ubr1∆) |
| --- | --- | --- | --- | --- |
| TLTDILEDELYHTNPGH [RPN4] | 3.04 ± 0.055 | 3.25 ± 0.049 | 3.1 ± 0.064 | 3.21 ± 0.043 |
| QTRWGLPSGRQDGVLLV [FAS2] | 1.65 ± 0.12 |  | 1.59 ± 0.24 | 1.32 ± 0.15 |
| NNNGNPGTTSTGNNNNI [GAL11] | 3.18 ± 0.12 | 3.34 ± 0.075 | 3.18 ± 0.061 | 3.23 ± 0.07 |
| NAEVVAGNIKCRNDAVN [BRR2] | 2.77 ± 0.11 | 3.67 ± 0.16 | 3.05 ± 0.087 | 2.86 ± 0.14 |
| LIKKAVSVRKHLERNRK [RPS13] | 3.43 ± 0.26 | 3.32 ± 0.11 |  | 3.28 ± 0.1 |
| EVLCSRIIEKSVRRSGA [RRP45] | 2.38 ± 0.066 | 3.21 ± 0.076 | 2.41 ± 0.1 | 2.94 ± 0.1 |
| RNLDSATLKEIKSIIEQ [SMC3] | 3.25 ± 0.078 | 3.51 ± 0.087 | 3.2 ± 0.066 | 3.21 ± 0.068 |
| EALLVVLVSSVTEANII [RPS12] |  | 1.15 ± 0.14 |  | 1.13 ± 0.11 |
| AFETHYRRLFAKRLIHG [CDC53] | 2.46 ± 0.076 | 2.54 ± 0.071 | 2.8 ± 0.09 | 2.89 ± 0.071 |
| ISCPLIGVIQLAHYVVT [FAS1] | 1.57 ± 0.072 | 1.2 ± 0.041 | 1.24 ± 0.093 | 1.27 ± 0.042 |
| GQRTAYHSKRDASTPLR [RPB2] | 3.32 ± 0.092 | 3.1 ± 0.11 | 3.12 ± 0.066 | 3.25 ± 0.071 |
| SLDTLELESITESITHD [NUT1] | 2.57 ± 0.063 | 2.42 ± 0.046 | 2.76 ± 0.059 | 2.34 ± 0.035 |
| KAIRGMVSHKTARGKAA [RPL16B] | 1.94 ± 0.056 | 2.01 ± 0.057 | 2.14 ± 0.087 | 2.62 ± 0.039 |
| FSFGGTQTGQNTGPSTG [YGL172W/NUP49] | 3.59 ± 0.23 | 3.34 ± 0.17 | 3.18 ± 0.1 | 3.1 ± 0.11 |
| AIIRLHPSIYTQVFNIL [POP1] | 2.02 ± 0.051 | 1.22 ± 0.047 | 1.2 ± 0.09 | 1.22 ± 0.036 |
| FNQEGDYNFKYGIPLEF [PRP8] | 3.14 ± 0.084 | 3.11 ± 0.077 | 1.92 ± 0.076 | 3.37 ± 0.077 |
| QQQLRNQIQRQQQQQFR [SNF5] | 1.43 ± 0.18 |  | 1.4 ± 0.21 | 1.55 ± 0.061 |
| NFNDIPPSVTLQDWQRE [YDL088C/ASM4] | 2.51 ± 0.078 | 2.31 ± 0.054 | 2.44 ± 0.077 | 3.09 ± 0.053 |
| INMADRSLGLQQVVCIF [POP6] | 1.39 ± 0.093 | 1.3 ± 0.11 | 1.4 ± 0.15 | 1.06 ± 0.11 |
| VVDANGCVNSLISGPRN [YMR129W/POM152] | 2.86 ± 0.15 | 2.69 ± 0.12 | 2.97 ± 0.13 | 2.66 ± 0.081 |
| RELFVMAREHAPSIIFM [RPT6] | 1.82 ± 0.078 | 1.99 ± 0.085 | 1.4 ± 0.23 | 1.71 ± 0.078 |
| LVLPPVVTSSVAESFTD [SNF2] | 2.13 ± 0.047 | 2.02 ± 0.057 | 2.39 ± 0.084 | 2.32 ± 0.053 |
| PERFMVFQLPTRLPAFE [RPC53] | 2.31 ± 0.065 | 2.75 ± 0.054 | 2.54 ± 0.089 | 2.79 ± 0.058 |
| LNLLSQNNTTKFHSELQ [RPN12] | 2.47 ± 0.091 | 2.24 ± 0.078 | 1.67 ± 0.12 | 2.16 ± 0.12 |
| AKAKRRHTTGTGRMRYL [RPL37A] | 3.14 ± 0.14 | 3.22 ± 0.083 | 2.99 ± 0.16 | 3.62 ± 0.16 |
| RINSTDEDLHEFQIEDA [SRB8] | 2.86 ± 0.14 | 2.87 ± 0.078 | 2.86 ± 0.12 | 3.22 ± 0.2 |

| Sequence | protein stability index (doa10∆) | protein stability index (pdr5∆) | protein stability index (san1∆) | protein stability index (ubr1∆) |
| --- | --- | --- | --- | --- |
| RNQRKGAGSIFTSHTRL [RPL2A] | 2.03 ± 0.054 | 3.12 ± 0.067 | 2.73 ± 0.05 | 3.09 ± 0.059 |
| AQDEVFSLAFSPNRYWL [ASC1] | 2.78 ± 0.24 | 2.75 ± 0.17 | 2.54 ± 0.18 | 2.38 ± 0.19 |
| PHANPITHAHSLSNPNS [PGD1] | 2.87 ± 0.046 | 2.99 ± 0.045 | 2.77 ± 0.038 | 2.94 ± 0.03 |
| QIMQLKKICNHPFVFEE [SNF2] | 2.77 ± 0.075 | 2.38 ± 0.053 | 2.53 ± 0.063 | 2.55 ± 0.059 |
| KKVVLRLECVKCKTRAQ [RPL42A] | 2.3 ± 0.12 | 2.03 ± 0.095 | 2.4 ± 0.16 | 2.09 ± 0.047 |
| KEKEKEREEAEKKRAEQ [MED2] |  |  | 2.75 ± 0.28 |  |
| RALVEHIIQAKADAQRE [RPL19A] | 1.67 ± 0.26 |  |  |  |
| IGFTIKEYENHSGELMR [SMC1] | 2.53 ± 0.14 | 2.79 ± 0.059 | 2.06 ± 0.12 | 2.86 ± 0.14 |
| FVIRREVTKGEKTYTKA [RPS6A] | 3.24 ± 0.17 | 3.13 ± 0.14 |  | 3.53 ± 0.13 |
| GEVLGITRFGLSKMRDS [RPO31] | 3.56 ± 0.12 | 3.26 ± 0.11 | 3.19 ± 0.075 | 3.46 ± 0.1 |
| LAGKYIPNLTAKPFQVT [FAS1] | 2.37 ± 0.06 | 2.76 ± 0.053 | 2.29 ± 0.1 | 2.63 ± 0.048 |
| SLSRDFVMKTRRRKGIS [SNU114] | 3.25 ± 0.2 | 3.31 ± 0.11 | 3.02 ± 0.074 | 2.77 ± 0.22 |
| QEQVYPDFKPWEHTAAE [SRB8] | 2.44 ± 0.16 | 2.94 ± 0.13 | 3.17 ± 0.076 | 2.93 ± 0.11 |
| QDLILDLKKKLNSLKDE [SMC4] | 2.39 ± 0.083 | 2.82 ± 0.2 | 2.01 ± 0.076 | 1.57 ± 0.062 |
| NSSEKNNNNNNNNNNNN [MED2] | 3.09 ± 0.058 | 3.03 ± 0.058 | 2.95 ± 0.059 | 3.12 ± 0.053 |
| TPKLQTQLSYLISSSLS [YCS4] | 1.95 ± 0.047 | 2.14 ± 0.052 | 2 ± 0.08 | 2.09 ± 0.046 |
| DANPSSQIIARNEEILR [SMC2] | 2.94 ± 0.08 | 2.79 ± 0.083 | 3.21 ± 0.076 | 2.76 ± 0.11 |
| SVPLVIGQFLEPIDQNT [RPT3] | 1.88 ± 0.11 | 2.77 ± 0.095 | 2.95 ± 0.13 | 2.71 ± 0.067 |
| RYRLLSDVSDFEGWGHE [RPN1] | 2.63 ± 0.12 | 3.35 ± 0.1 | 3.07 ± 0.09 | 2.83 ± 0.12 |
| VSMKANKYQIKKAVKEL [RPL25] | 1.18 ± 0.065 | 1.52 ± 0.07 | 2.98 ± 0.056 | 2.97 ± 0.071 |
| KIATRGVMLWKEFDETI [FAS1] | 3.02 ± 0.22 | 2.94 ± 0.22 |  | 2.94 ± 0.15 |
| KHYKNIPRNSPLSDLKK [RPC82] | 2.88 ± 0.15 | 2.97 ± 0.17 | 2.59 ± 0.19 | 2.97 ± 0.083 |
| DYINELSNSNRFELHGD [REC8] | 2.78 ± 0.12 | 3.08 ± 0.11 | 3 ± 0.092 | 3.03 ± 0.13 |
| AAGNASSLPPGEILLPD [SNF5] | 3.15 ± 0.077 | 3.2 ± 0.063 | 3.1 ± 0.06 | 3.3 ± 0.053 |
| KAFEERHQAGKNQWFFS [RPL27A] | 2.87 ± 0.097 | 3.14 ± 0.11 | 2.65 ± 0.11 | 3.03 ± 0.055 |
